Data taken from patent US20220220224A1 (Hoffmann-La Roche, published 2022).

B1: 9D11 IgG (antibody, V domains shown)
VH: QVQLVQSGAEVKKPGASVKVSCKASGYTFTSYYMHWVRQAPGQGLEWMGIINPSGGPTSYAQKFQGRVTMTRDTSTSTVYMELSSLRSEDTAVYYCARGDFAWLDYWGQGTLVTVSS
VL: not shown
notes: human IgG1
B2: 16D5 D52dE IgG (antibody, V domains shown)
VH: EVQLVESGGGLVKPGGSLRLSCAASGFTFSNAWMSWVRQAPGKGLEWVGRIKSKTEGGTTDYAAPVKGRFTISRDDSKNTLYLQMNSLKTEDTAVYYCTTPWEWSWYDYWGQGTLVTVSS
VL: QAVVTQEPSLTVSPGGTVTLTCGSSTGAVTTSNYANWVQEKPGQAFRGLIGGTNKRAPGTPARFSGSLLGGKAALTLSGAQPEDEAEYYCALWYSNLWVFGGGTKLTVL
notes: IgG
B3: 16D5 D52dQ IgG (antibody, V domains shown)
VH: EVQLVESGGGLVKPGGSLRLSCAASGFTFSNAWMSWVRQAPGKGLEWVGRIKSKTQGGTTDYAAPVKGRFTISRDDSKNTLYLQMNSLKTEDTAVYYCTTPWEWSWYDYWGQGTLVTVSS
VL: B2 VL
notes: IgG
B4: 14E4 IgG (antibody, V domains shown)
VH: not shown
VL: EIVLTQSPGTLSLSPGERATLSCRASQSVSSSYLAWYQQKPGQAPRLLIYGASSRATGIPDRFSGSGSGTDSTLTISRLEPEDFAVYYCQQPTSSPITFGQGTKVEIK
notes: human IgG1

Legend:
[1] = biological target: T1, recombinant biotinylated monomeric Fc fusion of murine Folate Receptor 1 (mu FolR1 ECD-AcTev-Fcknob-Avitag … (murine, UniProt P0DOX5 223-449 = IgG part, biotin on the C-terminal Avi tag)); experiment: SPR Biacore, single injection on immobilized antigen-Fc
T1 construct: also called muFolR1-Fc; murine FolR1
Summary of the method: (§1)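 Biacore T200 at 25 °C in HBS-EP (HEPES pH 7.4). Biotinylated FolR-Fc fusions captured on SA chip at about 300-400 RU. IgGs injected once at 500 nM for 60 s to assess cross-reactivity and specificity.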

[2] = biological target: T2, recombinant biotinylated monomeric Fc fusion of human Folate Receptor 2 (hu FolR2 ECD-AcTev-Fcknob-Avi tag … (human, UniProt P0DOX5 223-449 = IgG part, biotin on the C-terminal Avi tag)); experiment: as above
T2 construct: also called FolR2-Fc
Summary of the method: as §1

[3] = biological target: T3, recombinant biotinylated monomeric Fc fusion of human Folate Receptor 3 (hu FolR3 ECD-AcTev-Fcknob-Avi tag … (human, UniProt P0DOX5 223-449 = IgG part, biotin on the C-terminal Avi tag)); experiment: as above
T3 construct: also called FolR3-Fc
Summary of the method: as §1

[4] = biological target: T4, human FolR2 on transfected HEK cells (human, UniProt P14207 17-230); experiment: flow cytometry on transfected HEK cells
T4 construct: whole, on cells
T4 sequence (P14207 17-230): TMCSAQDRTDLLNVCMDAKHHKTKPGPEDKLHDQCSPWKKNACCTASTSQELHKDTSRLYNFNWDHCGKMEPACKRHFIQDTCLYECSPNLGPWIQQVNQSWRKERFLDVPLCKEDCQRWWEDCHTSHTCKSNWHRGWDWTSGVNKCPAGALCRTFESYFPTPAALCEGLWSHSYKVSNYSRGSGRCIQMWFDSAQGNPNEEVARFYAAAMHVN

[5] = biological target: T5, human FolR1 expressed on cells (HeLa, SKOV3, HT-29, transfected HEK cells) (human, UniProt P15328 25-234); experiment: flow cytometry on transfected HEK cells
T5 construct: whole, on cells; also called FolR1 on HeLa cells; human FolR1 on cells
T5 sequence (P15328 25-234): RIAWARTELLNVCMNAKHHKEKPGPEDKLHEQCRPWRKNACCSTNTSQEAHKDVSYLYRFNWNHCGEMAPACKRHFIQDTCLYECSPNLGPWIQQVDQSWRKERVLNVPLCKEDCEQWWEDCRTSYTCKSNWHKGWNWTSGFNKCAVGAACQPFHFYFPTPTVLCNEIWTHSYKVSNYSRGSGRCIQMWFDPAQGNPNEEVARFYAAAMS

[6] = biological target: T1, recombinant biotinylated monomeric Fc …; experiment: SPR Biacore, avidity set-up, antigen-Fc on SA chip
Procedure: (§2) The avidity of the interaction between the anti-FolR1 IgGs or T cell bispecifics and the recombinant folate receptors was determined as described below (Table 38).
(§3) Recombinant biotinylated monomeric Fc fusions of human, cynomolgus and murine Folate Receptor 1 (FolR1-Fc) were directly coupled on a SA chip using the standard coupling instruction (Biacore, Freiburg/Germany). The immobilization level was about 160. The anti-FolR1 IgGs or T cell bispecifics were passed at a concentration range from 3.7 to 900 nM with a flow of 30 μL/minutes through the flow cells over 180 seconds. The dissociation was monitored for 600 seconds. Bulk refractive index differences were corrected for by subtracting the response obtained on reference flow cell immobilized with recombinant biotinylated murine IL2 receptor Fc fusion. The binding curves resulting from the bivalent binding of the IgG or T cell bispecifics were approximated to a 1:1 Langmuir binding (even though it is a 1:2 binding) and fitted with that model to get an apparent KD representing the avidity of the bivalent binding. The apparent avidity constants for the interactions were derived from the rate constants of the fitting using the Bia Evaluation software (GE Healthcare).

[7] = biological target: T6, recombinant biotinylated monomeric Fc fusion of human Folate Receptor 1 (huFolR1 ECD-AcTev-Fcknob-Avi tag … (human, UniProt P0DOX5 223-449 = IgG part, biotin on the C-terminal Avi tag)); experiment: SPR Biacore, affinity (monovalent), antibody captured via anti-Fab
T6 construct: also called huFolR1-Fc; human FolR1-Fc
Procedure: (§4) The affinity of the interaction between the anti-FolR1 IgGs or the T cell bispecifics and the recombinant folate receptors was determined as described below (Table 39).
(§5) For affinity measurement, direct coupling of around 10000 resonance units (RU) of the anti-human Fab specific antibody (Fab capture kit, GE Healthcare) was performed on a CM5 chip at pH 5.0 using the standard amine coupling kit (GE Healthcare). Anti-FolR1 IgGs or T cell bispecifics were captured at 20 nM with a flow rate of 10 μl/min for 40 sec, the reference flow cell was left without capture. Dilution series (12.35 to 3000 nM) of human and cyno Folate Receptor 1 Fc fusion were passed on all flow cells at 30 μl/min for 240 sec to record the association phase. The dissociation phase was monitored for 300 s and triggered by switching from the sample solution to HBS-EP. The chip surface was regenerated after every cycle using a double injection of 60 sec 10 mM Glycine-HCl pH 1.5. Bulk refractive index differences were corrected for by subtracting the response obtained on the reference flow cell 1. The affinity constants for the interactions were derived from the rate constants by fitting to a 1:1 Langmuir binding using the Bia Evaluation software (GE Healthcare).

[8] = biological target: T7, recombinant biotinylated monomeric Fc fusion of cynomolgus Folate Receptor 1 (cy FolR1 ECD-AcTev-Fcknob-Avi … (cynomolgus, UniProt P0DOX5 223-449 = IgG part, biotin on the C-terminal Avi tag)); experiment: as above
T7 construct: also called cyFolR1-Fc; cyno FolR1
Procedure: as §4, §5

[9] = biological target: T6, recombinant biotinylated monomeric Fc …; experiment: SPR Biacore, avidity (bivalent, apparent KD), antigen-Fc on SA chip
Procedure: as §2, §3

[10] = biological target: T7, recombinant biotinylated monomeric Fc …; experiment: as above
Procedure: as §2, §3

[11] = biological target: T5, human FolR1 expressed on cells (HeLa, …); experiment: flow cytometry on HeLa cells
[12] = biological target: T6, recombinant biotinylated monomeric Fc …; experiment: SPR Biacore, single injection on immobilized antigen-Fc
Summary of the method: as §1

[13] = biological target: T7, recombinant biotinylated monomeric Fc …; experiment: as above
Summary of the method: as §1

| binding result [2] | binding result [3] | binding result [6] | Kd [7] | koff [7] | kon [7] | Kd [8] | koff [8] | kon [8] | Kd [9] | koff [9] | kon [9] | Kd [10] | koff [10] | kon [10] | other results | Binder |
| --- | --- | --- | --- | --- | --- | --- | --- | --- | --- | --- | --- | --- | --- | --- | --- | --- |
| no binding (tested: 500 nM) | no binding (tested: 500 nM) |  |  |  |  |  |  |  |  |  |  |  |  |  | binding result [1]: no binding (tested: 500 nM); binding result [4]: no binding; binding result [5]: binds | B1 |
|  |  | no binding | 95 nM | 0.00227 s⁻¹ | 24000 M⁻¹ s⁻¹ | 530 nM | 0.012 s⁻¹ | 22500 M⁻¹ s⁻¹ | 3.4 nM | 0.000545 s⁻¹ | 162000 M⁻¹ s⁻¹ | 2.5 nM | 0.00747 s⁻¹ | 2.98e+06 M⁻¹ s⁻¹ |  | B2 |
|  |  | no binding | 230 nM | 0.00162 s⁻¹ | 6970 M⁻¹ s⁻¹ | 410 nM | 0.00332 s⁻¹ | 8200 M⁻¹ s⁻¹ | 9.2 nM | 0.000775 s⁻¹ | 84000 M⁻¹ s⁻¹ | 5 nM | 0.00204 s⁻¹ | 412000 M⁻¹ s⁻¹ |  | B3 |
| no binding (tested: 500 nM) | no binding (tested: 500 nM) |  |  |  |  |  |  |  |  |  |  |  |  |  | binding result [11]: no binding; binding result [12]: no binding (tested: 500 nM); binding result [13]: no binding (tested: 500 nM) | B4 |
